Data reported in US7064106B2, “Gene and use thereof” (Takeda Chemical Industries, Ltd., priority 1999, dated 2006).

Tests used:
Assay type in all cases: cell-based
[1] = target: T1, C-terminal cytoplasmic domain (amino acid numbers 468–510) of mouse GLUT4 (Mus musculus, UniProt P14142); assay: Yeast two-hybrid β-galactosidase assay, interaction with glucose transporter; conditions: bait mouse GLUT4 (468–510); prey human MD36 cDNA 2995–3674 fused to GAL4-AD
T1 construct: amino acid numbers 468–510; expressed in transfected cells; host or cells: Saccharomyces cerevisiae Y190
T1 sequence (P14142 467-509): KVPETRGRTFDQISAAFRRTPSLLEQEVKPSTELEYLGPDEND
Protocol: (§1) As the bait sequence, the C-terminal cytoplasmic domain (amino acid numbers 468–510; SEQ ID NO:13 and SEQ ID NO:14) of mouse GLUT4 was used. For control, similar procedures were performed using the C-terminal cytoplasmic domain (amino acid numbers 451–492) of mouse GLUT1, which is the other protein of glucose transporters. These sequences were isolated from the respective cDNAs by PCR using pfu polymerase (manufactured by Stratagene, Inc.) and constructed to be expressed as the fusion proteins in the GAL4-BD sequence of pGBT9 (manufactured by Clontech, Inc.). On the other hand, human MD36 cDNA (base numbers 2995–3674 in SEQ ID NO:3) fused to GAL4-AD was used as the prey sequence. S. Cerevisiae Y190 was transformed by these plasmids, and the binding activity of MD36 to each of the glucose transporters was assayed in terms of the β-galactosidase activity.

[2] = target: T2, C-terminal cytoplasmic domain (amino acid numbers 451–492) of mouse GLUT1 (Mus musculus, UniProt P17809); assay: as above; conditions: bait mouse GLUT1 (451–492); prey human MD36 cDNA 2995–3674 fused to GAL4-AD
T2 construct: the C-terminal cytoplasmic domain (amino acid numbers 451–492) of mouse GLUT1; expressed in transfected cells; host or cells: Saccharomyces cerevisiae Y190
T2 sequence (P17809 451-492): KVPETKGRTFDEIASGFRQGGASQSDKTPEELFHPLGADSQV
Protocol: as §1

[3] = target: T3, profilin IIL (Homo sapiens, UniProt P35080); assay: Yeast two-hybrid HIS3 growth test, MD36 and profilin family; conditions: S. cerevisiae Y190; 40 mM 3-amino-1,2,4-triazole
T3 construct: expressed in transfected cells; host or cells: Saccharomyces cerevisiae Y190
T3 sequence (P35080 1-140): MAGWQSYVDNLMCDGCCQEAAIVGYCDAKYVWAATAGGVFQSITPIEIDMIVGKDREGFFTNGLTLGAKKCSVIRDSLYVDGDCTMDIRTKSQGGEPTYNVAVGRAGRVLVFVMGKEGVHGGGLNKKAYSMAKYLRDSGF
Protocol: Using as a template human skeletal muscle-derived cDNA and as an enzyme Pfu polymerase (STRATAGENE), the reaction was carried out at 95° C. for 30 seconds, at 65° C. for 45 seconds and at 72° C. for 60 seconds, for 35 cycles. As a result of PCR, the DNA fragment of 745 bp was found, in addition to the DNA fragment of 423 bp or profilin II, and named profilin IIL. The base sequence for cDNA of profilin IIL is shown by SEQ ID NO:29, and the amino acid sequence of profilin II is shown by SEQ ID NO:28.
The protein-protein interaction between MD36 and the profilin family was detected by the yeast two-hybrid system. Based on pGBT9 (CLONTECH), expression plasmids were constructed to express the coding regions of profiling I (Evangelista et al., Science, 276, 118–122, 1997; Imamura et al., EMBO J., 16, 2745–2755, 1997; Tanaka, Biochem. Biophys. Res. Commun., 267, 479–481, 2000), profilin II (Schluter et al., Biohim. Biophys. Acta, 1359, 97–109, 1997), and profiling IIL in the form fused to yeast GAL4-DNA-binding domain protein under control of yeast ADH1 promoter. These plasmids were named pG-PFNI, pG-PFNII and pG-PFNIII, respectively (yeast selection marker was TRP1). […]

[4] = target: T4, profilin II (Homo sapiens, UniProt P35080); assay: as above; conditions: S. cerevisiae Y190; 40 mM 3-amino-1,2,4-triazole
T4 construct: expressed in transfected cells; host or cells: Saccharomyces cerevisiae Y190
T4 sequence (P35080 1-140 isoform P35080-2): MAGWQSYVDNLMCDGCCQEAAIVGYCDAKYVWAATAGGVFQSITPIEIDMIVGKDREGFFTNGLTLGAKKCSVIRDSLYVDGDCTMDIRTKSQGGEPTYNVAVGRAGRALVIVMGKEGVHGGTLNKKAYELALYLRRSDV
Description: (§2) The protein-protein interaction between MD36 and the profilin family was detected by the yeast two-hybrid system. Based on pGBT9 (CLONTECH), expression plasmids were constructed to express the coding regions of profiling I (Evangelista et al., Science, 276, 118–122, 1997; Imamura et al., EMBO J., 16, 2745–2755, 1997; Tanaka, Biochem. Biophys. Res. Commun., 267, 479–481, 2000), profilin II (Schluter et al., Biohim. Biophys. Acta, 1359, 97–109, 1997), and profiling IIL in the form fused to yeast GAL4-DNA-binding domain protein under control of yeast ADH1 promoter. These plasmids were named pG-PFNI, pG-PFNII and pG-PFNIII, respectively (yeast selection marker was TRP1). On the other hand, expression plasmids that express the full-length sequence (SEQ ID NO:1) of MD36, which is IRAP-BP protein, or the coding region from this N-terminus to the sequence (SEQ ID NO:33) including the proline-rich domain in the form fused to yeast […] activated domain protein under control of yeast ADH1 promoter was constructed based on pACT2 (CLONTECH), and named pACT-MD36 and pACT-MD36NT, respectively (yeast selection marker was LEU2). pG-PFNI, pG-PFNII, pG-PFNIII or, pGBT9 for control was co-transfected to yeast Saccharomyces cerevisiae Y190 together with pACT-MD36 or pACT-MD36NT, and yeast strains bearing plasmids from the two were selected on SD medium free of tryptophan and leucine. S. cerevisiae Y190 is originally a histidine auxotrophic strain but when the introduced proteins on the plasmids show the interactions, reporter gene HIS3 is expressed and the strain becomes capable of growing on a histidine-free plate. The yeast strain acquired was spread on tryptophan, leucine and histidine-free SD medium supplemented with 40 mM 3-amino-1,2,4-triazole.

[5] = test system: profilin I; assay: as above; conditions: S. cerevisiae Y190; 40 mM 3-amino-1,2,4-triazole
Description: as §2

B1: MD36: human skeletal muscle-derived IRAP binding protein, SEQ ID NO:1; C-terminal part (bases 2995–3674) used in binding tests (protein, listed as Homo sapiens)
chain: MAGGEDRGDGEPVSVVTVRVQYLEDTDPFACANFPEPRRAPTCSLDGALPLGAQIPAVHRLLGAPLKLEDCALQVSPSGYYLDTELSLEEQREMLEGFYEEISKGRKPTLILRTQLSVRVNAILEKLYSSSGPELRRSLFSLKQIFQEDKDLVPEFVHSEGLSCLIRVGAAADHNYQSYILRALGQLMLFVDGMLGVVAHSDTIQWLYTLCASLSRLVVKTALKLLLVFVEYSENNAPLFIRAVNSVASTTGAPPWANLVSILEEKNGADPELLVYTVTLINKTLAALPDQDSFYDVTDALEQQGMEALVQRHLGTAGTDVDLRTQLVLYENALKLEDGDIEEAPGAGGRRERRKPSSEEGKRSRRSLEGGGCPARAPEPGPTGPASPVGPTSSTGPALLTGPASSPVGPPSGLQASVNLFPTISVAPSADTSSERSIYKLHQTASVWAPESPPVPQSPPGQARLEARFLENVAAAETEKQVALAQGRAETLAGAMPNEAGGHPDARQLWDSPETAPAARTPQSPAPCVLLRAQRSLAPEPKEPLIPASPKAEPIWELPTRAPRLSIGDLDFSDLGEDEDQDMLNVESVEAGKDIPAPSPPLPLLSGVPPPPPLPPPPPIKGPFPPPPPLPLAAPLPHSVPDSSALPTKRKTVKLFWRELKLAGGHGVSASRFGPCATLWASLDPVSVDTARLEHLFESRAKEVLPSKKAGEGRRTMTTVLDPKRSNAINIGLTTLPPVHVIKAALLNFDEFAVSKDGIEKLLTMMPTEEERQKIEEAQLANPDIPLGPAENFLMTLASIGGLAARLQLWAFKLDYDSMEREIAEPLFDLKVGMEQLVQNATFRCILATLLAVGNFLNGSQSSGFELSYLEKVSEVKDTVRRQSLLHHLCSLVLQTRPESSDLYSEIPALTRCAKVDFEQLTENLGQLERRSRAAEESLRSLAKHELAPALRARLTHFLDQCARRVAMLRIVHRRVCNRFHAFLLYLGYTPQAAREVRIMQFCHTLREFALEYRTCRERVLQQQQKQATYRERNKTRGRMITETEKFSGVAGEAPSNPSVPVAVSSGPGRGDADSHASMKSLLTSRPEDTTHNRRSRGMVQSSSPIMPTVGPSTASPEEPPGSSLPSDTSDEIMDLLVQSVTKSSPRALAARERKRSRGNRKSLRRTLKSGLGDDLVQALGLSKGPGLEV
[1]
  binding activity of MD36 to glucose transporter in terms of β-galactosidase activity: bound
[2]
  binding activity of MD36 to glucose transporter in terms of β-galactosidase activity: scarcely bound
[3]
  growth of yeast on tryptophan, leucine and histidine-free SD medium: Growth of the yeast was noted
[4]
  growth of yeast on tryptophan, leucine and histidine-free SD medium: did not grow
[5]
  growth of yeast on tryptophan, leucine and histidine-free SD medium: did not grow
